Reference: the DeepSol protein solubility set

Assay: soluble on expression in E. coli; label from the status in PepcDB or PDB records

Row | Sequence | soluble on expression in E. coli
1 | MGSSHHHHHHSSGLVPAGSHMASMTGGQQMGRGSMSLQVNLLNNTFANPFMNAAGVMCTTTEELVAMTESASGSLVSKSCTPALREGNPTPRYQALPLGSINSMGLPNNGFDFYLAYAAEQHDYGKKPLFLSMSGLSMRENVEMCKRLAAVATEKGVILELNLSCPNVPGKPQVAYDFDAMRQCLTAVSEVYPHSFGVKMPPYFDFAHFDAAAEILNEFPKVQFITCINSIGNGLVIDAETESVVIKPKQGFGGLGGRYVLPTALANINAFYRRCPGKLIFGCGGVYTGEDAFLHVLAGASMVQVGTALQEEGPSIFERLTSELLGVMAKKRYQTLDEFRGKVRTLDGTAESTR | soluble
2 | MGSDKIHHHHHHMKMSINQIGRSNKVQIEKTEVEISTPDGKMPAFFYQPCERGQKPAVILLMEAFGLTSHIQDVATRIAKEGYVVLTPDLYYRELTNNKFGYEEVEQAMAMMYRLDFGKPIEEDIRAAIAYLKSQSNVFSEKIGVTGFCLGGGLSFLSACKFSDEIAAVASFYGMVLDDWIEAVTNISVPIYLFYGGIDSFIPPERVQQIETRFQELSKEYTLKVYPDADHGFFCHERSSYNRLAAEDSWNELTQFFHRHLQ | not soluble
3 | MKNLILVLGCFFFLISCQQTEKEKLEELVKNWNGKEVLFPTNPSFTLYGKTPVDFKIPVSDYKIVTYVDSLGCSSCKLQLPKWKEFMKYADSIVGYQIPVLFFLHPANVREMRSVLKQNRFDYPVCMDTEDTFNKVNKFPSQLNFQTFLLDKNNHVIAIGNPVHNYDVRELYIHLISGGIDGDSLSNMRTVIKIEEDMVDLGSFDWRREQHITFEIHNIGNNNLVVYDNKTSCGCTSVEYSKEPVQPGKSLAVKVTYKADHPEHFNKTIILYCNASASPLELKITGNAK | not soluble
4 | MNSASFLQSRLISRSFLVRRSLKRYSGLAKPYTFQQPTIYALSTPANQTSAIAIIRISGTHAKYIYNRLVDSSTVPPIRKAILRNIYSPSSCSVKPHDQKESKILLDTSLLLYFQAPYSFTGEDVLELHVHGGKAVVNSILKAIGSLHDRSSGKDIRFALPGDFSRRAFQNGKFDLTQLEGIKDLIDSETESQRRSALSSFNGDNKILFENWRETIIENMAQLTAIIDFADDNSQEIQNTDEIFHNVEKNIICLRDQIVTFMQKVEKSTILQNGIKLVLLGAPNVGKSSLVNSLTNDDISIVSDIPGTTRDSIDAMINVNGYKVIICDTAGIREKSSDKIEMLGIDRAKKKSVQSDLCLFIVDPTDLSKLLPEDILAHLSSKTFGNKRIIIVVNKSDLVSDDEMTKVLNKLQTRLGSKYPILSVSCKTKEGIESLISTLTSNFESLSQSSADASPVIVSKRVSEILKNDVLYGLEEFFKSKDFHNDIVLATENLRYASDGIAKITGQAIGIEEILDSVFSKFCIGK | not soluble
5 | MKSSMAMIKHKKELVEYARHLKLPNLAEHVGVILHEAQEKQLTYSEFLANCLAREIQGRERKSYLTRLKLSGLPAKYDLDLYDYDRAEGMDNRRLRELRELVWVNQAYNLLLVGPSGTGKTFIAAGLVYEAVKAGYEAYLMTLEELLTCLKTKEVSAHAMKTYKRIMKARLLAIDDATLFPLKREEAVLLFKLVNDFQERTSLIITANKALTRWLETLEDEAVTAALLDRLLYCCEIIRLGGTSYRMQNRKTIFSNQNTDIGTLEHHHHHH | not soluble
6 | MNKKELIDRVAKKAGAKKKDVKLILDTILETITEALAKGEKVQIVGFGSFEVRKAAARKGVNPQTRKPITIPERKVPKFKPGKALKEKVK | soluble
7 | TTSLRAYRLGEHGQVLEQRALSAGIMQLPTTPRLISGQLCSDGFELAFDQACGDWLDAEPGLPVIACGMVGSAQGWREAAYRETPASVNQLSAALQTVRSQRGVTVHIIPGVLQRSTLPNVMRGEETQVLGVLAGLETQLDNQPLLIGLPGSHSKWVQVTRGRIVHFDTFMTGEVYAALCAHTILGRTMQPAEAFDDQAFDRGLSIALSDTGSAGPLSTIFSTRTLGLTGQLAASAQPDYLSGLLFGHELGAIARLHLHTHEQLPAVILIGSEALCARYSRGLTVCGFPQVTLAEQATERGLWQVAVQAGLIAR | not soluble
8 | MNIVVLISGNGSNLQAIIDACKTNKIKGTVRAVFSNKADAFGLERARQAGIATHTLIASAFDSREAYDRALIHEIDMYAPDVVVLAGFMRILSPAFVSHYAGRLLNIHPSLLPKYPGLHTHRQALENGDEEHGTSVHFVTDELDGGPVILQAKVPVFAGDSEDDITARVQTQEHAIYPLVISWFADGRLKMHENAAWLDGQRLPPQGYAADE | soluble
